Reference: paper PMC13544220, “Glycemic and bodyweight effects of GIPR coding variation reflect differences in surface expression and intrinsic functional impairment” (Science Advances, 2026)

Tests used:
[1] = system: wild-type and variant SNAP-GIPR in Gipr-/- mouse islets; assay: Insulin secretion from Gipr-/- mouse islets transduced with GIPR adenoviruses; format: cell-based; settings: Fig 6D, Gipr-/- mouse islets
Procedure: (§1) Isolated islets used for insulin secretion assays were treated in 1.5-ml microcentrifuge tubes. Eight-ten islets were used per well with two-three technical replicates per condition. […] At the end of the treatment, supernatants containing the secreted insulin or glucagon were collected, centrifuged at 1000g for 5 min, and transferred to fresh tubes. […] The lysates were sonicated 3× for 10 s in a water bath and centrifuged at 10,000g for 10 min, and the supernatants were collected. The samples were stored at −20°C until the insulin or glucagon concentrations were determined using an Insulin Ultra-Sensitive HTRF Assay kit (62IN2PEG, Revvity) or an HTRF Glucagon Detection Kit (62CGLPEG, Revvity) respectively, according to the manufacturer’s instructions. GraphPad Prism 9.0 was used for the generation of the standard curve and sample concentration extrapolation. The total insulin or glucagon content was calculated by adding the secreted insulin to the insulin content of the lysates, and secretion was reported as the percentage release of total. The percent secretion of islets treated with agonist was normalized to that of islets treated with vehicle and reported as a fold change.

[2] = system: wild-type and variant SNAP-GIPR in wild-type mouse islets; assay: Insulin secretion from wild-type mouse islets transduced with GIPR adenoviruses; format: cell-based; settings: Fig 6F
Procedure: as §1, with “The samples were stored at −20°C until the insulin or glucagon concentrations were determined using an Insulin Ultra-Sensitive HTRF Assay kit (62IN2PEG, Revvity) or an HTRF Glucagon Detection Kit (62CGLPEG, Revvity) respectively, according to the manufacturer’s instructions.” left out

[3] = system: wild-type and variant SNAP-GIPR in Gipr-/- mouse islets; assay: Glucagon secretion from Gipr-/- mouse islets transduced with GIPR adenoviruses; format: cell-based; settings: Fig S6C, Gipr-/- mouse islets
Procedure: as §1

[4] = system: wild-type and variant SNAP-GIPR; assay: Surface SNAP-GIPR expression (SNAP-tag labelling) in AD293 cells; format: cell-based, human; settings: for AD293 Surface: Fig S3E, mean; for Surface SNAP-GIPR expression: sheet Fig 1C;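 as to all read-outs here: scaled to the experimental average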
How it was run: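 Read-out: whole-cell fluorescence of surface-only SNAP label (Alexa Fluor 647, 500 nM, 10 min, RT), wide-field 20X, several FOVs per well. Flat-field corrected, phase-contrast masked, nontransfected-well signal subtracted; normalized to experiment mean or wild-type.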

[5] = system: wild-type and variant SNAP-GIPR in Gipr-/- mouse islets; assay: Surface SNAP-GIPR expression in pancreatic islets; format: cell-based, human; settings: Fig 6B
Procedure: Islets were purified from Gipr^−/− mice as described in the “Islet isolation and culture” section. Islets were transduced with adenoviral wild-type or variant SNAP-tagged GIPR constructs (VectorBuilder) per the manufacturer’s instructions. All variants were tested in parallel on each occasion to control for transduction efficiency. Twenty-four hours posttransduction, whole, intact islets were labeled with SNAP-Surface Alexa Fluor 647 for 15 min at 37°C. Following labeling, the islets were placed in a drop of PBS in the center of a glass-bottom MatTek dish and imaged on a Zeiss LSM 780 inverted confocal microscope fitted with a 63X/1.4 NA oil immersion objective. Receptor surface levels were quantified in Fiji using a macro using full width at half maximum (FWHM) designed by the Facility for Imaging and Light Microscopy (FILM) at Imperial College London and expressed relative to wild-type GIPR. In additional experiments, islets transduced as above and labeled with SNAP-Surface-647 were fixed in 4% paraformaldehyde, permeabilized in 0.5% (v/v) Triton X-100 in PBS (15 min), washed once with PBS and incubated in blocking buffer (PBS and 1% BSA) for 1 hour, and incubated overnight at 4°C in primary antibodies against insulin (1:50; Dako IR002, Agilent Technologies) and glucagon (1:500; G2654, Sigma-Aldrich) in blocking buffer.

B1: E354Q (protein)
chain: RAETGSKGQTAGELYQRWERYRRECQETLAAAEPPSGLACNGSFDMYVCWDYAAPNATARASCPWYLPWHHHVAAGFVLRQCGSDGQWGLWRDHTQCENPEKNEAFLDQRLILERLQVMYTVGYSLSLATLLLALLILSLFRRLHCTRNYIHINLFTSFMLRAAAILSRDRLLPRPGPYLGDQALALWNQALAACRTAQIVTQYCVGANYTWLLVEGVYLHSLLVLVGGSEEGHFRYYLLLGWGAPALFVIPWVIVRYLYENTQCWERNEVKAIWWIIRTPILMTILINFLIFIRILGILLSKLRTRQMRCRDYRLRLARSTLTLVPLLGVHQVVFAPVTEEQARGALRFAKLGFEIFLSSFQGFLVSVLYCFINKEVQSEIRRGWHHCRLRRSLGEEQRQLPERAFRALPSGSGPGEVPTSRGLSSGTLPGPGNEASRELESYC
With B1 as the molecule, how does the “Insulin secretion, ratio G11 + GIP / G11” value ([1]; replicate 1) read?
Its value is 1.276.

What about the “Insulin secretion, ratio G11 + GIP / G11” value ([1]; replicate 2) of the same molecule?
The value was 0.2979.

And the “Insulin secretion, ratio G11 + GIP / G11” value ([1]; replicate 3)?
The value was 1.231.

What about the “Insulin secretion, ratio G11 + GIP / G11” value ([1]; replicate 4) of the same molecule?
Its value is 1.587.

What about the “Insulin secretion, ratio G11 + GIP / G11” value ([2]; replicate 1) of the same molecule?
The value was 0.7071.

And the “Insulin secretion, ratio G11 + GIP / G11” value ([2]; replicate 2)?
Its value is 0.9219.

And the “Insulin secretion, ratio G11 + GIP / G11” value ([2]; replicate 3)?
Its value is 0.7382.

And the “Insulin secretion, ratio G11 + GIP / G11” value ([2]; replicate 4)?
The value was 0.5337.

What about the “Insulin secretion, ratio G11 + GIP / G11” value ([2]; replicate 5) of the same molecule?
Its value is 0.4605.

And the “Glucagon secretion, ratio G0.5 + GIP / G0.5” value ([3]; replicate 1)?
Its value is 0.6783.

And the “Glucagon secretion, ratio G0.5 + GIP / G0.5” value ([3]; replicate 2)?
Its value is 1.215.

What about the “Glucagon secretion, ratio G0.5 + GIP / G0.5” value ([3]; replicate 4) of the same molecule?
Its value is 1.495.

What about the “AD293 Surface” value ([4]; column repeated, paired with cAMP 100 nM) of the same molecule?
The value was 0.7482.

And the “AD293 Surface” value ([4]; paired with cAMP 100 pM)?
The value was 0.7482.

What about the “Surface SNAP-GIPR expression” value ([4]; replicate 1) of the same molecule?
Its value is 0.8065.

What about the “Surface SNAP-GIPR expression” value ([4]; replicate 2) of the same molecule?
Its value is 0.9885.

What about the “Surface SNAP-GIPR expression” value ([4]; replicate 3) of the same molecule?
The value was 0.6105.

What about the “Surface SNAP-GIPR expression” value ([4]; replicate 4) of the same molecule?
Its value is 0.8642.

What about the “Surface SNAP-GIPR expression” value ([4]; replicate 5) of the same molecule?
The value was 0.9388.

And the “Surface SNAP-GIPR expression” value ([4]; replicate 6)?
The value was 0.763.

And the “Surface SNAP-GIPR expression” value ([4]; replicate 7)?
The value was 0.751.

What about the “Surface SNAP-GIPR expression” value ([4]; replicate 8) of the same molecule?
Its value is 0.7772.

What about the “Surface SNAP-GIPR expression” value ([4]; replicate 9) of the same molecule?
Its value is 0.3807.

And the “Surface SNAP-GIPR expression” value ([4]; replicate 10)?
The value was 0.8583.

And the “Surface SNAP-GIPR expression” value ([4]; replicate 11)?
The value was 0.7525.

And the “Surface SNAP-GIPR expression” value ([4]; replicate 12)?
The value was 0.8043.

And the “Surface SNAP-GIPR expression” value ([4]; replicate 13)?
The value was 1.071.

And the “Surface SNAP-GIPR expression” value ([4]; replicate 14)?
Its value is 0.6911.

What about the “Surface SNAP-GIPR expression” value ([4]; replicate 15) of the same molecule?
The value was 0.7162.

And the “Surface SNAP-GIPR expression” value ([4]; replicate 16)?
Its value is 0.6632.

And the “Surface SNAP-GIPR expression” value ([4]; replicate 17)?
The value was 0.6439.

What about the “Surface SNAP-GIPR expression” value ([4]; replicate 18) of the same molecule?
Its value is 0.5804.

What about the “Surface SNAP-GIPR expression” value ([4]; replicate 19) of the same molecule?
Its value is 0.6207.

What about the “Surface SNAP-GIPR expression” value ([4]; replicate 20) of the same molecule?
The value was 0.742.

What about the “Surface SNAP-GIPR expression” value ([4]; replicate 21) of the same molecule?
Its value is 0.7392.

What about the “Surface SNAP-GIPR expression” value ([4]; replicate 22) of the same molecule?
The value was 0.5026.

And the “Surface SNAP-GIPR expression” value ([4]; replicate 23)?
The value was 0.762.

And the “Surface SNAP-GIPR expression” value ([4]; replicate 24)?
The value was 0.7507.

And the “Surface SNAP-GIPR expression” value ([4]; replicate 25)?
Its value is 0.8473.

What about the “Surface SNAP-GIPR expression” value ([4]; replicate 26) of the same molecule?
Its value is 0.7374.

And the “Surface SNAP-GIPR expression” value ([4]; replicate 27)?
Its value is 0.7405.

What about the “Surface SNAP-GIPR expression” value ([4]; replicate 28) of the same molecule?
Its value is 0.7355.

What about the “Surface SNAP-GIPR expression” value ([4]; replicate 29) of the same molecule?
Its value is 0.6896.

And the “Surface SNAP-GIPR expression” value ([4]; replicate 30)?
Its value is 1.162.

What about the “Surface SNAP-GIPR expression” value ([4]; replicate 31) of the same molecule?
Its value is 0.7254.

And the “Surface SNAP-GIPR expression” value ([4]; replicate 32)?
Its value is 0.7792.

And the “Surface SNAP-GIPR expression” value ([4]; replicate 33)?
Its value is 0.8108.

And the “Surface SNAP-GIPR expression” value ([4]; replicate 34)?
The value was 0.9519.

What about the “Surface SNAP-GIPR expression” value ([4]; replicate 35) of the same molecule?
Its value is 0.6078.

What about the “Surface SNAP-GIPR expression” value ([4]; replicate 36) of the same molecule?
Its value is 0.6218.

And the “Surface SNAP-GIPR expression” value ([4]; replicate 37)?
Its value is 0.8918.

And the “Surface SNAP-GIPR expression” value ([4]; replicate 38)?
Its value is 0.4883.

What about the “Surface SNAP-GIPR expression” value ([4]; replicate 39) of the same molecule?
The value was 0.768.

What about the “Surface SNAP-GIPR expression” value ([4]; replicate 40) of the same molecule?
The value was 0.6348.

What about the “Surface SNAP-GIPR expression” value ([4]; replicate 41) of the same molecule?
Its value is 0.707.

And the “Surface SNAP-GIPR expression in pancreatic islets” value ([5]; replicate 1)?
Its value is 1.913.

And the “Surface SNAP-GIPR expression in pancreatic islets” value ([5]; replicate 2)?
Its value is 1.476.

And the “Surface SNAP-GIPR expression in pancreatic islets” value ([5]; replicate 3)?
Its value is 1.8301.

What about the “Surface SNAP-GIPR expression in pancreatic islets” value ([5]; replicate 4) of the same molecule?
Its value is 2.1125.

And the “Surface SNAP-GIPR expression in pancreatic islets” value ([5]; replicate 5)?
The value was 2.267.
